# Measurements reported in publication PMC6557989 (2019).
# T1: C4b-binding protein (C4BP), human, purified from plasma (human, UniProt P04003 49-597; P20851 18-252, ^125I-labelled in the binding assay on bacteria)
# T1 chain 1: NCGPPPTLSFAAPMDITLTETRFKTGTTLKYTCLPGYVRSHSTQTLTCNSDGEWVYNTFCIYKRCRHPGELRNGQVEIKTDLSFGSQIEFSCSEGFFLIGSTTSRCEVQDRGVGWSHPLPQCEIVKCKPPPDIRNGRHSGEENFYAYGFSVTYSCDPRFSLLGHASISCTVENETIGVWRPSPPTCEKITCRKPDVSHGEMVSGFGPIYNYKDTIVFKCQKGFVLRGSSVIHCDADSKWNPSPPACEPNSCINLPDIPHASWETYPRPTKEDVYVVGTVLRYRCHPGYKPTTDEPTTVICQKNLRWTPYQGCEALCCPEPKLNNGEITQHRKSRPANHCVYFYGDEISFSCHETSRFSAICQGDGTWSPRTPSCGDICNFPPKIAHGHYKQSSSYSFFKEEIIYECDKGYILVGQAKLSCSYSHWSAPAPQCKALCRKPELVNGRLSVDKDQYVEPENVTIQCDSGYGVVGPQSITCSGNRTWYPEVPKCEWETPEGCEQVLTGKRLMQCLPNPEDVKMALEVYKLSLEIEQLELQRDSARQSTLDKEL
# T1 chain 2: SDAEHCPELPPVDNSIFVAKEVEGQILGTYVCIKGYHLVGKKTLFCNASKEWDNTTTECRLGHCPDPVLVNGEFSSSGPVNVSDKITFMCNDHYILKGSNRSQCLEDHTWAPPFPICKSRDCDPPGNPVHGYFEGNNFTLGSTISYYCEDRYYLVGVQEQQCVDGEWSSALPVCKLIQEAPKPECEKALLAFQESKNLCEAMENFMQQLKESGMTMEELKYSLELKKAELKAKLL
# What was measured:
# [1] = target: T1, C4b-binding protein (C4BP), human, …; assay: SEC; n = 26 binding sites per C4BP
# [2] = target: pooled human IgG (IVIG; Kiovig) (human); assay: SEC; n = 1.1 binding sites per Protein H
binder,measurement,setting,value
"Protein H (natural protein, ^125I-labelled in the plate binding assay; Alexa-488 succinimidyl ester-labelled in thermophoresis; unlabelled elsewhere) EGAKIDWQEEYKKLDEDNAKLVEVVETTSLENEKLKSENEENKKNLDKLSKENQGKLEKLELDYLKKLDHEHKEHQKEQQEQEERQKNQEQLERKYQREVEKRYQEQLQKQQQLETEKQISEASRKSLSRDLEASRAAKKDLEAEHQKLEAEHQKLKEDKQISDASRQGLSRDLEASRAAKKELEANHQKLEAEHQKLKEDKQISDASRQGLSRDLEASRAAKKELEANHQKLEAEAKALKEQLAKQAEELAKLRAGKASDSQTPDTKPGNKAVPGKGQAPQAGTKPNQNKAPMKETKRQLPST",Kd,[1],1300 nM
same,Kd,[2],78 nM
